Target: T1, human neonatal Fc receptor (FcRn), FcRn beta-2-microglobulin complex (human, UniProt P55899 24-297; P61769 21-119)
T1 construct: also called human FcRn
Experiment: SPR-based binding assay, relative to the reference antibody

T1 sequence (P55899 24-297 limits assumed, chain 1 of 2): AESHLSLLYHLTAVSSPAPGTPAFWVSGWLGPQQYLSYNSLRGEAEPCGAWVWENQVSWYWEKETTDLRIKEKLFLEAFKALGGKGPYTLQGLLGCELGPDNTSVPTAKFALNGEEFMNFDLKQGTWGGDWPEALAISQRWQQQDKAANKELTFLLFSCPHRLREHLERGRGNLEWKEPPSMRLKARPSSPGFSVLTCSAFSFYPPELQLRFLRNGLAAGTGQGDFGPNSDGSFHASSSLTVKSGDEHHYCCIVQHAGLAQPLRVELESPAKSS
T1 sequence (P61769 21-119 limits assumed, chain 2 of 2): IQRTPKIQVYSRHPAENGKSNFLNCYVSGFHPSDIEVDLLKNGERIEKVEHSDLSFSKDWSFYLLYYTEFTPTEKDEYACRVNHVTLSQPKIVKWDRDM

B1: anti-digoxygenin antibody variant 7 (LC-G57R and LC-S60K) (antibody, human IgG1, kappa, name in Kabat numbering)
heavy: not shown
light: DIQMTQSPSSLSASVGDRVTITCRASQDIKNYLNWYQQKPGKAPKLLIYYSSTLLSRVPKRFSGSGSGTDFTLTISSLQPEDFATYYCQQSITLPPTFGGGTKVEIKRRTVAAPSVFIFPPSDEQLKSGTASVVCLLNNFYPREAKVQWKVDNALQSGNSQESVTEQDSKDSTYSLSSTLTLSKADYEKHKVYACEVTHQGLSSPVTKSFNRGEC
notes: Variant of m1
Q: With B1 as the binder, how does the “relative SPR binding” value read?
A: 161%

— US20210041163A1 (Hoffmann-La Roche, published 2021)
